Square brackets hold non-standard residues; d marks the D form. Dap = NC[C@H](N)C(=O)O
Key:
[1] = target: T1, mouse melanocortin 5 receptor (mouse, UniProt P41149 1-325); assay: radioligand binding
[2] = target: T2, mouse melanocortin 3 receptor (mouse, UniProt P33033 1-323); assay: radioligand binding
[3] = target: T3, mouse melanocortin 4 receptor (mouse, UniProt P56450 1-332); assay: radioligand binding
[4] = target: T4, mouse melanocortin 1 receptor (mouse, UniProt Q01727 1-315); assay: radioligand binding
T4 sequence (Q01727 whole entry): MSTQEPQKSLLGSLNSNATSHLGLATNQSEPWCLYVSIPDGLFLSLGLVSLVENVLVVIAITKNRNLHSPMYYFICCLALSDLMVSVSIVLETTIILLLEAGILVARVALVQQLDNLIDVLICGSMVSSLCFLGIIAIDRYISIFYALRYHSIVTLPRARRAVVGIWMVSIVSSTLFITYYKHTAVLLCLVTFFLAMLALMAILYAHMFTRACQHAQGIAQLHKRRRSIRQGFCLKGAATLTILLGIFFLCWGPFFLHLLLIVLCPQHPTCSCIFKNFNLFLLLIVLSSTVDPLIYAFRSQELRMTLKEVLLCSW

[5] = target: human melanocortin 4 receptor (human, UniProt P32245 1-332); assay: radioligand binding
human melanocortin 4 receptor, sequence (P32245 whole entry): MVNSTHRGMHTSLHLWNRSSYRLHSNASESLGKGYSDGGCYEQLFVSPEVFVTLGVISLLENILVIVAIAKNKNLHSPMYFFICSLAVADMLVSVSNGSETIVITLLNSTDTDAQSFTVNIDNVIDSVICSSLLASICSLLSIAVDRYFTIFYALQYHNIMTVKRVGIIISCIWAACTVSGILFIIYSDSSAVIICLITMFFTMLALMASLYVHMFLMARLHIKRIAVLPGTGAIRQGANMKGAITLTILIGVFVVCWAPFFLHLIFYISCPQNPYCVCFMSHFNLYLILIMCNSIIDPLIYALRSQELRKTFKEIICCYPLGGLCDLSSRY

[6] = target: T1, mouse melanocortin 5 receptor; assay: cell-based or functional assay
[7] = target: T2, mouse melanocortin 3 receptor; assay: cell-based or functional assay
[8] = target: T3, mouse melanocortin 4 receptor; assay: cell-based or functional assay
[9] = target: T4, mouse melanocortin 1 receptor; assay: cell-based or functional assay

T3 sequence (P56450 whole entry): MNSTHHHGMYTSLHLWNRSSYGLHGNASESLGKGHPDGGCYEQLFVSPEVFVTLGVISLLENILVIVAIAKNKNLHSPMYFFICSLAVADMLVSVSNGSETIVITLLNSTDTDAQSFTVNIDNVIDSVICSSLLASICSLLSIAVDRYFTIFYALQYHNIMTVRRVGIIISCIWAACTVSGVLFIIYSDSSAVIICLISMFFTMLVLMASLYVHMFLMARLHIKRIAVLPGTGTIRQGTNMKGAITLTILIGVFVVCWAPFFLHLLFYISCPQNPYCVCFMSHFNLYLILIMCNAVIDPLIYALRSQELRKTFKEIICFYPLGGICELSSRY
T1 sequence (P41149 whole entry): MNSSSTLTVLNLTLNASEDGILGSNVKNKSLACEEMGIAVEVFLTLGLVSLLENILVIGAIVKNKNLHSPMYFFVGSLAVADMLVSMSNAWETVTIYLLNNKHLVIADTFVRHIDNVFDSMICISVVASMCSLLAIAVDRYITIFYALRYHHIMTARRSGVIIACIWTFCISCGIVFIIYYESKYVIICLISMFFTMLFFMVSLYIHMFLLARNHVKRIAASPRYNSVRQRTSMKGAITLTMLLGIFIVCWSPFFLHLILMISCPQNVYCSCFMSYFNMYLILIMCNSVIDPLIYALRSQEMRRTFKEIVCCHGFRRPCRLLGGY
T2 sequence (P33033 whole entry): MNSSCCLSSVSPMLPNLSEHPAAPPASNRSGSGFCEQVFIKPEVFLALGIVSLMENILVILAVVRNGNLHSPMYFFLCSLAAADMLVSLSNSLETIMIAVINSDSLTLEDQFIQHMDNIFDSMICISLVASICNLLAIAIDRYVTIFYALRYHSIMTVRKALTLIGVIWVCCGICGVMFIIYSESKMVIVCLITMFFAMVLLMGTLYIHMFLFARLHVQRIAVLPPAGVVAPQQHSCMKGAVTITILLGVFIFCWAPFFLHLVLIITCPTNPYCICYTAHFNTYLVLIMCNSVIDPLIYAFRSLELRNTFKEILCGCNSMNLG

Binder	IC50 [1]	IC50 [2]	IC50 [3]	IC50 [4]	IC50 [5]	agonist activity, cAMP AlphaScreen, HEK293 cells stably expressing the receptor [6]	agonist activity, cAMP AlphaScreen, HEK293 cells stably expressing the receptor [7]	agonist activity, cAMP AlphaScreen, HEK293 cells stably expressing the receptor [8]	agonist activity, cAMP AlphaScreen, HEK293 cells stably expressing the receptor [9]
cyclo(PCFF[Dap]AF[dP]) [c[Pro-Cys-Phe-Phe-Dap-Ala-Phe-DPro]]	> 100 µM	49 µM	10 µM	33 µM	15.7 µM	> 100 µM	29 % of maximal NDP-MSH response at 100 μM	42 % of maximal NDP-MSH response at 100 μM	4 µM
cyclo(PRFFNAF[dP]) [c[Pro-Arg-Phe-Phe-Asn-Ala-Phe-DPro]]				9 µM					
cyclo(PHFFNAF[dP]) [c[Pro-His-Phe-Phe-Asn-Ala-Phe-DPro]]	> 100 µM	> 100 µM	6.7 µM	> 100 µM	22 µM	> 100 µM	> 100 µM	> 100 µM	23 % of maximal NDP-MSH response at 100 μM
cyclo(PCFFNAF[dP]) [c[Pro-Cys-Phe-Phe-Asn-Ala-Phe-DPro]]	> 100 µM	> 100 µM	1.9 µM	24.6 µM	19.3 µM		> 100 µM	> 100 µM	46 % of maximal NDP-MSH response at 100 μM
cyclo(PRYFNAF[dP]) [c[Pro-Arg-Tyr-Phe-Asn-Ala-Phe-DPro]]	> 100 µM	> 100 µM	2 µM	> 100 µM	14.3 µM		> 100 µM	> 100 µM	> 100 µM
cyclo(PHFF[Dap]AF[dP]) [c[Pro-His-Phe-Phe-Dap-Ala-Phe-DPro]]	12 µM	15 µM	1 µM	25 µM	2.7 µM	> 100 µM	> 100 µM	> 100 µM	56 % of maximal NDP-MSH response at 100 μM
cyclo(PRYF[Dap]AF[dP]) [c[Pro-Arg-Tyr-Phe-Dap-Ala-Phe-DPro]]	36 µM	28 µM	0.134 µM	18 µM	1.02 µM	> 100 µM	> 100 µM	> 100 µM	48 % of maximal NDP-MSH response at 100 μM

Second part, the binder after the results:

IC50 [1]	IC50 [2]	IC50 [3]	IC50 [4]	IC50 [5]	agonist activity, cAMP AlphaScreen, HEK293 cells stably expressing the receptor [6]	agonist activity, cAMP AlphaScreen, HEK293 cells stably expressing the receptor [7]	agonist activity, cAMP AlphaScreen, HEK293 cells stably expressing the receptor [8]	agonist activity, cAMP AlphaScreen, HEK293 cells stably expressing the receptor [9]	Binder
29 µM	53 µM	0.038 µM	15 µM	0.25 µM	> 100 µM	> 100 µM	16 % of maximal NDP-MSH response at 100 μM	23 % of maximal NDP-MSH response at 100 μM	cyclo(PRFFNVF[dP]) [c[Pro-Arg-Phe-Phe-Asn-Val-Phe-DPro]]
2.7 µM	10 µM		8 µM	0.0322 µM	> 100 µM	27 % of maximal NDP-MSH response at 100 μM	37 % of maximal NDP-MSH response at 100 μM	79 % of maximal NDP-MSH response at 100 μM	cyclo(PRFF[Dap]VF[dP]) [c[Pro-Arg-Phe-Phe-Dap-Val-Phe-DPro]]
1.7 µM	3.2 µM		5.2 µM						PRFFXAFP (Dap (diaminopropionic acid) at position 5 (X in the letters); DPro at position 8; head-to-tail cyclised (macrocycle)) [c[Pro-Arg-Phe-Phe-Dap-Ala-Phe-DPro]]

— PMC7250496 (Journal of medicinal chemistry, 2020)
